How the values were obtained:
[1] = target: TASK3 (UniProt Q9NPC2); test: fluorescence polarisation; 2D fluorescence anisotropy titrations of 14-3-3 at varying concentrations of fusicoccin-A, 10 nM labelled TASK3; fitted here with a ternary equilibrium model, KD,I fixed at 4.05 μM; data (Dataset S2) published before
[2] = target: TASK3 (UniProt Q9NPC2); test: fluorescence polarisation; fluorescence anisotropy; 14-3-3 titrated in the presence of 10 nM labelled TASK3; KD fitted here with a one-to-one equilibrium model; data (Dataset S1) from earlier work

Sequence of UniProt Q9NPC2 (Q9NPC2 whole entry): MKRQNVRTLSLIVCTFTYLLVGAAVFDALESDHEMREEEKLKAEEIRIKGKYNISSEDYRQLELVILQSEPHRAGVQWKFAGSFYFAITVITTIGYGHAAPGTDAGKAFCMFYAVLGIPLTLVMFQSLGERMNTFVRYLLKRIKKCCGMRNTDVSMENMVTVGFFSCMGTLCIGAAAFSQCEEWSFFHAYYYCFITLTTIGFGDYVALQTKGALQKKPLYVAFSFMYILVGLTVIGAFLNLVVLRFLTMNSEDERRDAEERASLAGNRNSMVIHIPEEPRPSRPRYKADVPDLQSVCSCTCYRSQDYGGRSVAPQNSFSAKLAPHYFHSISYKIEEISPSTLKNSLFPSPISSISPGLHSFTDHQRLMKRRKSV

- cooperativity factor α with fusicoccin-A [1]: 1340
- Kd [2]: 4.05 µM
Substance: 14-3-3 protein (from UniProt P31947 1-248) (natural protein)

From paper PMC10074561
